# Experimental data taken from IntAct's records for PubMed 21376300.
# B1: Voltage-dependent calcium channel gamma-2 subunit (Rattus norvegicus (Rat)), Q71RJ2 (parent)
# chain: MGLFDRGVQMLLTTVGAFAAFSLMTIAVGTDYWLYSRGVCKTKSVSENETSKKNEEVMTHSGLWRTCCLEGNFKGLCKQIDHFPEDADYEADTAEYFLRAVRASSIFPILSVILLFMGGLCIAASEFYKTRHNIILSAGIFFVSAGLSNIIGIIVYISANAGDPSKSDSKKNSYSYGWSFYFGALSFIIAEMVGVLAVHMFIDRHKQLRATARATDYLQASAITRIPSYRYRYQRRSRSSSRSTEPSHSRDASPVGVKGFNTLPSTEISMYTLSRDPLKAATTPTATYNSDRDNSFLQVHNCIQKDSKDSLHANTANRRTTPV
# B2: Band 4.1-like protein 1 (Rattus norvegicus (Rat)), Q9WTP0 (parent)
# chain: MTTETGPDSEVKKAQEETPQQPEAAAAVTTPVTPAGHSHPETNSNEKHLTQQDTRPAEQSLDMEEKDYCEADGLSERTTPSKAQKSPQKIAKKFKSATCRVTLLDASEYECEVEKHGRGQVLFDLVCEHLNLLEKDYFGLTFCDADSQKNWLDPSKEIKKQIRSSPWNFAFTVKFYPPDPAQLTEDITRYYLCLQLRADIITGRLPCSFVTHALLGSYAVQAELGDHDTEEHVGNYVSELRFAPNQTRELEERIMELHKTYRGMTPGEAEIHFLENAKKLSMYGVDLHHAKDSEGIDIMLGVCANGLLIYRDRLRINRFAWPKILKISYKRSNFYIKIRPGEYEQFESTIGFKLPNHRSAKRLWKVCIEHHTFFRLVSPEPPPKGFLVMGSKFRYSGRTQAQTRQASALIDRPAPFFERSSSKRYTMSRSLDGAEFSRPASVSENHDAGPDGDKREDDAESGGRRSEAEEGEVRTPTKIKELKPEQETTPRHKQEFLDKPEDVLLKHQASINELKRTLKEPNSKLIHRDRDWERERRLPSSPASPSPKGTPEKASERAGLREGSEEKVKPPRPRAPESDTGDEDQDQERDAVFLKDNHLAIERKCSSITVSSTSSLEAEVDFTVIGDYHGGAFEDFSRSLPELDRDKSDSETEGLVFARDLKGPSSQEDESGGIEDSPDRGACSTPELPQFESVKAETMTVSSLAIRKKIEPEAMLQSRVSTADSTQVDGGAPAAKDFMTTPPCITTETISTTMENSLKSGKGAAAMIPGPQTVATEIRSLSPIIGKDVLTSTYGATAETLSTSTTTHVTKTVKGGFSETRIEKRIIITGDEDVDQDQALALAIKEAKLQHPDMLVTKAVVYRETDPSPEERDKKPQES
# Variants of: B1
# Settings: with gria1_rat Gria1, P19490
row,effect of a mutation on the interaction,Variant
1,decreasing interaction,MGLFDRGVQMLLTTVGAFAAFSLMTIAVGTDYWLYSRGVCKTKSVSENETSKKNEEVMTHSGLWRTCCLEGNFKGLCKQIDHFPEDADYEADTAEYFLRAVRASSIFPILSVILLFMGGLCIAASEFYKTRHNIILSAGIFFLSAGLSNIIGIIVYISANAGDPSKSDSKKNSYSYGWSFYFGALSFIIAEMVGVLAVHMFIDRHKQLRATARATDYLQASAITRIPSYRYRYQRRSRSSSRSTEPSHSRDASPVGVKGFNTLPSTEISMYTLSRDPLKAATTPTATYNSDRDNSFLQVHNCIQKDSKDSLHANTANRRTTPV [V143L]

# Variants of: B1
# Settings: with gria2_rat Gria2, P19491
# Sequence of gria2_rat Gria2, P19491 (P19491 whole entry): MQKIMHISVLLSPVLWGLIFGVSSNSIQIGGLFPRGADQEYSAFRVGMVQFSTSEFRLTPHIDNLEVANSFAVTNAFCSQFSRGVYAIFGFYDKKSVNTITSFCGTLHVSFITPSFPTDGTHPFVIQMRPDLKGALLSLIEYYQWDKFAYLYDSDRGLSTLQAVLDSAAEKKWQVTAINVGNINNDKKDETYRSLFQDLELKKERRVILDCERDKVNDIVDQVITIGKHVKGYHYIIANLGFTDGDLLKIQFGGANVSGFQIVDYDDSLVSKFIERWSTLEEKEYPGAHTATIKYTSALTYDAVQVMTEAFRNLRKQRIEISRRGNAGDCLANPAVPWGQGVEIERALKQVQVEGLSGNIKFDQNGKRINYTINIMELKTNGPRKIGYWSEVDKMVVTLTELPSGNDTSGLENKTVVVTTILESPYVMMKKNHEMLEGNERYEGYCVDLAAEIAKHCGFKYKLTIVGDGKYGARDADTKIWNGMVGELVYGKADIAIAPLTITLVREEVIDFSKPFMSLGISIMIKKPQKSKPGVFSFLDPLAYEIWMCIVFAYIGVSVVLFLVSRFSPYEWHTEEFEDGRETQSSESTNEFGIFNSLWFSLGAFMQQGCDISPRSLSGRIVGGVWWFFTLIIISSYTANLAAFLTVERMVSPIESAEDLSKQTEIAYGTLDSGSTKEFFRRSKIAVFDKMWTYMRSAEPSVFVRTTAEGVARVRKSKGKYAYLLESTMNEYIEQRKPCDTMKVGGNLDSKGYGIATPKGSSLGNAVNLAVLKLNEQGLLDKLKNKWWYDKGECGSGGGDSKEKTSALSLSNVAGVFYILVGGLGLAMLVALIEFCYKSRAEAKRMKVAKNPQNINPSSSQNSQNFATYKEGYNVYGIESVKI
row,effect of a mutation on the interaction,Variant
1,decreasing interaction,MGLFDRGVQMLLTTVGAFAAFSLMTIAVGTDYWLYSRGVCKTKSVSENETSKKNEEVMTHSGLWRTCCLEGNFKGLCKQIDHFPEDADYEADTAEYFLRAVRASSIFPILSVILLFMGGLCIAASEFYKTRHNIILSAGIFFLSAGLSNIIGIIVYISANAGDPSKSDSKKNSYSYGWSFYFGALSFIIAEMVGVLAVHMFIDRHKQLRATARATDYLQASAITRIPSYRYRYQRRSRSSSRSTEPSHSRDASPVGVKGFNTLPSTEISMYTLSRDPLKAATTPTATYNSDRDNSFLQVHNCIQKDSKDSLHANTANRRTTPV [V143L]

# Variants of: B2
# Settings: with gria1_rat Gria1, P19490
# Target sequence in this assay (P19490 whole entry): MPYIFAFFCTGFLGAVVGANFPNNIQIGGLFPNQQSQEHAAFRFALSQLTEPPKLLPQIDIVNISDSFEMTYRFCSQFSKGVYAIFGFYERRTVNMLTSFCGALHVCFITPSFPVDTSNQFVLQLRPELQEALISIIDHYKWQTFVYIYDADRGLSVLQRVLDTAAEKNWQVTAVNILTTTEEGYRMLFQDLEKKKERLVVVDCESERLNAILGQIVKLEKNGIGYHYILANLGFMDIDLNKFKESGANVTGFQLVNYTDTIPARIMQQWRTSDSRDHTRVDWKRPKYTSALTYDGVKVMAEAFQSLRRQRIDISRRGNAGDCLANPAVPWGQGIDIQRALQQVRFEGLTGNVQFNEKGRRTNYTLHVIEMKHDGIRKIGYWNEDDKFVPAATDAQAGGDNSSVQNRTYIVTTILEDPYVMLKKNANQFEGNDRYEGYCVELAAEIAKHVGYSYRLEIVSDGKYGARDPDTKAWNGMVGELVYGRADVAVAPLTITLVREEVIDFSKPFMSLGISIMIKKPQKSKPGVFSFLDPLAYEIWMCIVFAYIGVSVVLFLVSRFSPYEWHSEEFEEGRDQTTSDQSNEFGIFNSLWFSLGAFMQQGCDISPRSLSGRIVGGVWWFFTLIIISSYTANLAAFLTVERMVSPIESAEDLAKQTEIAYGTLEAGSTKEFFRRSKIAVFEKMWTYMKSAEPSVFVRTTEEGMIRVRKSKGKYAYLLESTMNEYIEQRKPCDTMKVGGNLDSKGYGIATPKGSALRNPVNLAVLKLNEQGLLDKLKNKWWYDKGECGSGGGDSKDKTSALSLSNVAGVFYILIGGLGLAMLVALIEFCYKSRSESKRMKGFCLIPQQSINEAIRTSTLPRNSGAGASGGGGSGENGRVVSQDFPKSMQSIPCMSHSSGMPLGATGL
row,effect of a mutation on the interaction,Variant
1,decreasing interaction,P852S
